The term koff denotes the rate constant with which the complex falls apart. Read a low koff as a long-lived complex.

Our source for the koff values is paper PMC9714796 (2022).

The experiment addresses T1, TGF-βRII-Fc (muTGFbRII-mFc) (mouse (from the printed name …, UniProt Q62312 24-166)).
T1 chain: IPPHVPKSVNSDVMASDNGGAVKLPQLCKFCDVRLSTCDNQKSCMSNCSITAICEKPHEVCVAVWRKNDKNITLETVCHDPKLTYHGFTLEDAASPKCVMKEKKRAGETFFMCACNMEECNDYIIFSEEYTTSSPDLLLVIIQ
The experiment is described as follows: SPR. For orientation: SPR reads the build-up and loss of mass on a sensor chip optically.

B1: Transforming growth factor-β3 (TGF-β3) (ligand)
chain: ALDTNYCFRNLEENCCVRPLYIDFRQDLGWKWVHEPKGYYANFCSGPCPYLRSADTTHSTVLGLYNTLNPEASASPCCVPQDLEPLTILYYVGRTPKVEQLSNMVVKSCKCS
In turn, B1 displayed a koff of 0.0013 s⁻¹.
